Reference: patent US20180305409A1 (SHAANXI MICOT TECHNOLOGY, published 2018)
Bridge positions count the residues as written; N and C are the ends. Square brackets hold non-standard residues; d marks the D form. Ends that are not written are not given here. hArg = N=C(N)NCCCC[C@H](N)C(=O)O

Columns and labels:
[1] = molecular target: human thrombin (human, UniProt P00734 328-622); experiment: cell-based or functional assay
[2] = molecular target: platelet GPIIb/IIIa receptor (human, UniProt P08514 32-1039; P05106 27-788); experiment: cell-based or functional assay
Sequence of platelet GPIIb/IIIa receptor (P08514 32-1039, chain 1 of 2): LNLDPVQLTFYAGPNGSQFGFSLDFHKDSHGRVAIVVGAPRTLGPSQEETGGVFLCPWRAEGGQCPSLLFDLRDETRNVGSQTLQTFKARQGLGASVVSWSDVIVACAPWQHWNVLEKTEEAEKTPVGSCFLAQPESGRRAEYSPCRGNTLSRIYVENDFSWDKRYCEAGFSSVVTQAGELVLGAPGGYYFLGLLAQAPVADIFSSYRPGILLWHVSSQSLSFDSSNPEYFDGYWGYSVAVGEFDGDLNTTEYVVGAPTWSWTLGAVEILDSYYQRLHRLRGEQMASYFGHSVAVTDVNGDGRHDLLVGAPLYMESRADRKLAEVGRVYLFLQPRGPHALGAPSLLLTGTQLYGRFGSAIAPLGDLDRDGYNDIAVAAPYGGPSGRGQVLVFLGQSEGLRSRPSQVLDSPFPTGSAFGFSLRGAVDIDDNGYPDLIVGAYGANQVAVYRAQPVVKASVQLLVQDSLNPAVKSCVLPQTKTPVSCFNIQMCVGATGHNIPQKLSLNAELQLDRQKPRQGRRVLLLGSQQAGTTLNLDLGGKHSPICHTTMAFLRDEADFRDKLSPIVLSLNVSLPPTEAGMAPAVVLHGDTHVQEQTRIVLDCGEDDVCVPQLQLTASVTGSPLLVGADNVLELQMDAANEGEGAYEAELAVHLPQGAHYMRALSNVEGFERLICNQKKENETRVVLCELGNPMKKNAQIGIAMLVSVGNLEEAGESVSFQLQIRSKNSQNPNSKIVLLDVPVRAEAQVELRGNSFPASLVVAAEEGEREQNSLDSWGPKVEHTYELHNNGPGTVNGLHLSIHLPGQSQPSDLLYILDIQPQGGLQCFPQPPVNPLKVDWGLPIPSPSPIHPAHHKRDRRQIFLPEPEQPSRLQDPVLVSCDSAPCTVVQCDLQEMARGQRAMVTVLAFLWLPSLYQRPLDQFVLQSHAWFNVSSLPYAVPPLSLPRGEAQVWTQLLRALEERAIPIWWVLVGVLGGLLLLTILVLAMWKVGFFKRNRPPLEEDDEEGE
Sequence of platelet GPIIb/IIIa receptor (P05106 27-788, chain 2 of 2): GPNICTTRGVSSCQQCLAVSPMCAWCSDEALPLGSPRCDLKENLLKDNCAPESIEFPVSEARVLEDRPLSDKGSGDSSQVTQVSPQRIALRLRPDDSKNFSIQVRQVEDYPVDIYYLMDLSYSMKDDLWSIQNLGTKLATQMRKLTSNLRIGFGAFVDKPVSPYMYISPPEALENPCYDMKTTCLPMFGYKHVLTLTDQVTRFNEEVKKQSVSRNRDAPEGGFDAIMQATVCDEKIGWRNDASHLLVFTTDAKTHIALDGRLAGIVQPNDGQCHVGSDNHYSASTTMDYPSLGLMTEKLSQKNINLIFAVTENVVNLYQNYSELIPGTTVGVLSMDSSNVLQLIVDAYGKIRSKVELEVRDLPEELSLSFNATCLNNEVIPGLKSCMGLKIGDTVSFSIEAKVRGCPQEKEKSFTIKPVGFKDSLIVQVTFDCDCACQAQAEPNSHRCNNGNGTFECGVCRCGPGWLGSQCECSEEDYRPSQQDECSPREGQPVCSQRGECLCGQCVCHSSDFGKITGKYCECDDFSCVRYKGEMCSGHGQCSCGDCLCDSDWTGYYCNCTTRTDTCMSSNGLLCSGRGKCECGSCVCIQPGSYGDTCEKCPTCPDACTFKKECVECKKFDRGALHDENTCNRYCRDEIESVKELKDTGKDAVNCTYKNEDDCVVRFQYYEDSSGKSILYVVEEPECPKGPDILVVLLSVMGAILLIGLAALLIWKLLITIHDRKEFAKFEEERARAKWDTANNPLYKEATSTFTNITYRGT

[dF]PRPGGGGNGRFEEIPEEYLEAAAKC[hArg]GDWPC (disulfide 26-32) [polypeptide 2]
APTT(S), human platelet poor plasma in vitro, 1 × 10^-6 mol/L (saline 33.10) [1]: 104 s | Fold of Prolongation in APTT, 1 × 10^-6 mol/L [1]: 3.35 fold | Fold of Prolongation in PT, 1 × 10^-6 mol/L [1]: 3.04 fold | PT(S), human platelet poor plasma in vitro, 1 × 10^-6 mol/L (saline 11.22) [1]: 34.8 s | TT(S), human platelet poor plasma in vitro, 1 × 10^-6 mol/L (saline 14.07) [1]: > 180 s | Inhibitory rate of platelet aggregation (%), ADP-induced human platelet aggregation in vitro, 1 × 10-5 mol/L [2]: 100% | Inhibitory rate of platelet aggregation (%), ADP-induced human platelet aggregation in vitro, 3 × 10-6 mol/L [2]: 66.7% | Platelet aggregation rate (%), ADP-induced human platelet aggregation in vitro, 1 × 10-5 mol/L (saline 73.39) [2]: 0% | Platelet aggregation rate (%), ADP-induced human platelet aggregation in vitro, 3 × 10-6 mol/L (saline 73.39) [2]: 26.1%

B1: polypeptide 3 (peptide)
peptide: FPRPGGGGNGDFEEIPEEYLCXGDWPC
modifications: D-Phe at position 1 (N-terminal); Har (homoarginine) at position 22; disulfide bond between the two Cys (21 and 27)
APTT(S), human platelet poor plasma in vitro, 1 × 10^-6 mol/L (saline 33.10) [1]: 102 s | Fold of Prolongation in APTT, 1 × 10^-6 mol/L [1]: 2.94 fold | Fold of Prolongation in PT, 1 × 10^-6 mol/L [1]: 2.14 fold | PT(S), human platelet poor plasma in vitro, 1 × 10^-6 mol/L (saline 11.22) [1]: 25.7 s | TT(S), human platelet poor plasma in vitro, 1 × 10^-6 mol/L (saline 14.07) [1]: > 180 s | Inhibitory rate of platelet aggregation (%), ADP-induced human platelet aggregation in vitro, 1 × 10-5 mol/L [2]: 47.1% | Inhibitory rate of platelet aggregation (%), ADP-induced human platelet aggregation in vitro, 3 × 10-6 mol/L [2]: 26.4% | Platelet aggregation rate (%), ADP-induced human platelet aggregation in vitro, 1 × 10-5 mol/L (saline 73.39) [2]: 35.4% | Platelet aggregation rate (%), ADP-induced human platelet aggregation in vitro, 3 × 10-6 mol/L (saline 73.39) [2]: 57.9%
